The results in this text go back to US12551573B2, “Compositions and methods for the targeting of PCSK9” (Scribe Therapeutics Inc., priority 2022, dated 2026).

This assay has as its system HBEGF locus. The class given is cell-based, human.
Where [1] appears, read: repressor domain in dXR, repression of the HBEGF gene, abundance of domain in library after vs before diphtheria toxin selection.
Where [2] appears, read: high-throughput screen of dXR repression of the HBEGF gene, change in abundance of each domain in the library before and after diphtheria toxin selection.

Changes are numbered by the printed parent chain. Read-outs that look alike come from different tables or passages of the source.

B1: DOMAIN_7716 (protein)
chain: VAFEDVAVYFTAEEWDLLGPNQKSLYSEVMMENYENVSYLADNWKKTIAFAHSQKDFIHKLHQRTHKEDEHHTRAEPCEST
modifications: Pogona vitticeps
Take B1: the “Log2 (fold change)” value under setting [1] amounted to 3.1171.

B2: DOMAIN_4774 (protein, listed as Callithrix sp.)
chain: HGSSYEGSVSFRDVAINFSREEWRHLDLSQRNLYWDVMLETYSHLLSVGYQFPKPEVVMLEQGNEPWALQGERPRHSCPGE
As for B2, the “Log2 (fold change)” value under setting [2] amounted to 2.8894.

B3: DOMAIN_6445 (protein, listed as Alligator sinensis)
chain: MELREAFEDVAVYFTRKEWELLEDEDKELYRDLMLRNYQALVSLGYQGPTPGLICRIKQREVELWVCDDEHHGESSVSENL
With B3, the “Log2 (fold change)” value under setting [2] is listed as 3.1151.

B4: DOMAIN_7183 (protein)
chain: VQVPVTFEDVAVYFSEDEWGMLAGWQKELYKETMKENYETLTLLGCLSEKPSLISKIEREEDPCVRDQQDPRDRRKLRSSW
modifications: Microcaecilia unicolor
As to B4, the “Log2 (fold change)” value under setting [2] worked out at 2.4918.

B5: DOMAIN_6398 (protein, listed as Gopherus agassizii)
chain: MPVTFEEVAVYFTEGQGALLDPAQRALYRDVMQEIYEMVISLGFLLPKPDVIIQLERGEEPWVPDLQGSAEREMSRGTCAG
As to B5, the “Log2 (fold change)” value under setting [2] came to 2.8238.

B6: DOMAIN_4121 (protein, listed as Macaca mulatta)
chain: MAFEDVAVYFSQEEWGLLDTAQRALYRRVMLDNFALVASLGLSTSRPRVVIQLERGEEPWVPSGTDTILSRNTYRRRNPGS
For the molecule B6, under setting [2], the “Log2 (fold change)” value is recorded as 3.3195.

B7: DOMAIN_5006 (protein, listed as Callithrix sp.)
chain: B6 chain with G64E, T67M, I68T, L69M, Y74H
Consider B7, for which the “Log2 (fold change)” value under setting [2] is 3.8614.

B8: DOMAIN_7605 (protein, listed as Alligator sinensis)
chain: SKLSEAFEDVAVYFTWKEWALLEAADKMLYRDQMLKNYQALFSLGYRGPTPDLICRIQRGEMELWVSDLEEAGESSLSEDS
For the molecule B8, the “Log2 (fold change)” value under setting [1] is listed as 2.8444.

B9: DOMAIN_5791 (protein, listed as Homo sapiens)
chain: EPGAVSFADVAVYFCREEWGCLRPAQRALYRDVMRETYGHLSALGIGGNKPALISWVEEEAELWGPAAQDPEVAKCQTQTD
B9: under setting [2], the “Log2 (fold change)” value was determined as 2.6823.

B10: DOMAIN_4516 (protein, listed as Callithrix sp.)
chain: MAAIPLKAQCQETVTFEDVAVHFTKTEWTGLSPAQRALYRSVMLENYGNLTAMGYLVPKPALISLLEGGDMAWGLEAQDDP
Consider B10, for which the “Log2 (fold change)” value under setting [2] is 2.7603.

B11: DOMAIN_7184 (protein)
chain: TQMQVKFDDIAVSFSQEEWKYLDEEQKELYREVMKENYQILISLGTGSSTTPKIISHIERGEEPYIRDEPVLVERKTGKSS
modifications: Microcaecilia unicolor
Take B11: the “Log2 (fold change)” value under setting [2] is 2.2019.

B12: DOMAIN_5188 (protein, listed as Aotus trivirgatus)
chain: MITAQGPVSFRDVTVGFTQEEWQHLDPAQRTLYRDVMIENYSHLVSVGYCIPKPEVILKLEKGEEPWISEEKFPSQSHLEL
On to B12, for which the “Log2 (fold change)” value under setting [2] is listed as 2.1842.

B13: DOMAIN_6737 (protein)
chain: QMLVTFEDIAVSFSKEEWEYLDEGQKELYREVMKENYQTLISLGTGFPTVIPEIISHIEQGDEPGSEERENGKSSCSGESG
modifications: Microcaecilia unicolor
Regarding B13, the “Log2 (fold change)” value under setting [2] is on record as 2.4861.

B14: DOMAIN_6472 (protein, listed as Alligator sinensis)
chain: VVLLEAFEDVAVYFTQKEWALLDDGDKALYRDQMLRNYQALISLGYRGPTPALINRIQRGEMELWVCDKDYGEKSSLEGLF
As to B14, under setting [2], the “Log2 (fold change)” value is 2.9259.

B15: DOMAIN_8012 (protein, listed as Callipepla squamata)
chain: PSVPVTFRDVFVQFSRDEWALLDDEQKELHQSVMQSNYEVLMSLYCDLAKPEVLLQMERGEPCLPAEPDLQGAAVSLNPAA
In the case of B15, under setting [1], the “Log2 (fold change)” value is on record as 3.2046.

B16: DOMAIN_6738 (protein)
chain: FQTLLAFEDVAVFFSEEEWELLDELQKEVYKNTMRENYETLLSLGLTNMKPEIIAKIDAGEAPSVQNASYLEKRGKKSAAG
modifications: Microcaecilia unicolor
Turning to B16, under setting [2], the “Log2 (fold change)” value is recorded as 2.9275.

B17: DOMAIN_4120 (protein, listed as Macaca mulatta)
chain: MAFEDVAVYFSQEEWGLLDTAQRALYRHVMLENFTLVTSLGLSTSRPHVVIQLERGEEPWVPSGKDMTLARNTYRRLNAGS
For the molecule B17, under setting [2], the “Log2 (fold change)” value came to 3.3237.

B18: DOMAIN_5005 (protein, listed as Callithrix sp.)
chain: B17 chain with Q12E, H48L, E58D, G64V, T73A, R75G, L77R, N78T, A79T
For the molecule B18, under setting [2], the “Log2 (fold change)” value turned out to be 2.8406.

B19: DOMAIN_5946 (protein, listed as Homo sapiens)
chain: RQAFLAFGDVTVDFTQKEWRLLSPAQRALYREVTLENYSHLVSLGILHSKPELIRRLEQGEVPWGEERRRRPGPCAGIYAE
As for B19, the “Log2 (fold change)” value under setting [2] amounted to 3.2998.

B20: DOMAIN_7098 (protein)
chain: QVPVIFEDVAVYFWEEEWEMLEEWQKELYKETMKENYKTLVSLGMELPTEKPDLIVRIEREENPCVKAQWDSRDKTRWRNS
modifications: Microcaecilia unicolor
For the molecule B20, the “Log2 (fold change)” value under setting [2] stood at 2.7074.

B21: DOMAIN_6410 (protein, listed as Podarcis muralis)
chain: GLVSFDEVSVHFTNEEWALLDPGQRALYEEVMEEIREMMTSVGDVSEFLTEGEQSEPSREGAEEQKEQRKQRVQVGTYRKE
Turning to B21, the “Log2 (fold change)” value under setting [2] was 2.7633.

B22: DOMAIN_6697 (protein, listed as Podarcis muralis)
chain: B21 chain with L2S, H11R, T13S
B22: the “Log2 (fold change)” value under setting [2] turned out to be 2.6712.

B23: DOMAIN_6433 (protein, listed as Podarcis muralis)
chain: B21 chain with L2S, H11R, T13S, P57L, K80N
As for B23, the “Log2 (fold change)” value under setting [2] turned out to be 3.0313.

B24: DOMAIN_7813 (protein, listed as Columba livia)
chain: WQEPVTFEDVAVYLSHAEWDAMAPEQRELYCSVMLDNYQLLASLGYPGPKPDIVYRLERGEEPWGCAPQSPLSWDGPRSPS
B24: the “Log2 (fold change)” value under setting [1] stood at 3.4645.

B25: DOMAIN_3832 (protein, listed as Macaca mulatta)
chain: TMSCSRAGGITGCIKYSTASVAFRDVAVDFTQEEWRLLSPAQRTLHREVMLETYNHLVSLEIPSSKPKLIAQLERGEEPWR
With B25, under setting [2], the “Log2 (fold change)” value came to 2.7334.

B26: DOMAIN_3463 (protein, listed as Hylobates sp.)
chain: MMTAVSLTTRPQESVAFEDVAVYFTAKEWDIMVPAERALYRDVMLENYEAVAFVVPPTSKPALVSHLEQGKESCFTRPQGV
As for B26, under setting [2], the “Log2 (fold change)” value came to 3.5462.

B27: DOMAIN_6952 (protein, listed as Alligator mississippiensis)
chain: DQLQEAFEDVALYFTQNEWELLGDGDKVLYRDQMLRNYQALVSLGYQGPAPDLISRIQRQEVELWVCEEENPGESVWTEGL
In the case of B27, the “Log2 (fold change)” value under setting [2] is 2.3403.

B28: DOMAIN_7109 (protein)
chain: MRVTFEDIAVSFSQEEWEYLDEEQKELYREVMKENYQTLISLGAGSLTFTPEIISHIERGEEPYSRDEPGSGEREPGKSRC
modifications: Microcaecilia unicolor
Consider B28, for which, under setting [2], the “Log2 (fold change)” value was determined as 2.9932.

B29: DOMAIN_7607 (protein, listed as Alligator sinensis)
chain: MEPRDAFEDVAVYFTREEWALLDDGDKGLYRDQMLRNYQALVSLGYRGPTPDLICCIQRGKVELWVRDGEDHGEISGSEDL
For B29, the “Log2 (fold change)” value under setting [1] is 2.7102.

B30: DOMAIN_6807 (protein, listed as Xenopus laevis)
chain: LVKFEEVAVVFSEDEWNLLSDQQRGLYMEVMKENYEHLIYLGYEVPVILSLLQDGGGISSDAGSQSKSQQVAVAEGSNVNS
In the case of B30, the “Log2 (fold change)” value under setting [2] is given as 3.1615.

B31: DOMAIN_7353 (protein)
chain: AQMQVTFEDIAVFFCHEEWKYLDDGQKELYKEVMKENYETLISLGFLCEKPSLISKIEREEDPCVRDQQDFRERRRRLKSF
modifications: Microcaecilia unicolor
For the molecule B31, the “Log2 (fold change)” value under setting [2] came out at 2.6649.

B32: DOMAIN_5125 (protein, listed as Callithrix sp.)
chain: MPANEDTPQPGGHGSACEVSVSFEDVTVDFSREEWQQLDSTQRRLYQDVMLENYSHLLSVGFEVPKPEVIFKLEQGEGPWT
In the case of B32, the “Log2 (fold change)” value under setting [2] is 2.911.

B33: DOMAIN_7774 (protein)
chain: PQDSVTFEEVAVSFSREEWALLTDWQKNLYKDVMRDNYEMLNSLDLAAHKPDIILRIERGQEPCVGRLQRSKARERPNHVF
modifications: Pogona vitticeps
On to B33, for which, under setting [1], the “Log2 (fold change)” value worked out at 3.427.

B34: DOMAIN_6938 (protein, listed as Alligator mississippiensis)
chain: SKLPEAFEDVAVYFTRKEWELLEAGDKGLYQDQMLRNYQALVSLGLQGPAPDLICRMQLGEMELWVCDDEEAGESSLSEDF
Regarding B34, the “Log2 (fold change)” value under setting [2] stood at 2.6093.

B35: DOMAIN_6356 (protein, listed as Terrapene carolina)
chain: MSVTFEDVAMYFSPAEWVLLGEEQKQLYRHVMWENYQTLVSLGIQISKPVVISSIERGEELWAQSPTEDEDEDILSGTSPG
Regarding B35, under setting [2], the “Log2 (fold change)” value is given as 2.9197.

B36: DOMAIN_5440 (protein, listed as Aotus trivirgatus)
chain: MAVDLLPAQESMTFRDVAVFFSQDEWLHLDSAQRALYREVMLENYSTLVSLGIPFSMPKVIHQLQQGQDPCMVEGEVPSDI
With B36, under setting [2], the “Log2 (fold change)” value is given as 2.7871.
